Reference: publication PMC2154361

Target: RIM1α C2B domain
Experiment: AUC

Kd: 90 µM
stoichiometry N: 2
Substance: RIM1α C2B domain (domain or fragment)
